Laboratory results from publication PMC12585912.

Legend:
His101 = His101 (UniProt position 101, RLRALHMKEHP); experiment: NMR; conditions: 293 K per the general NMR methods; not restated for the pH titration; 150 mM ionic strength; not given for the titration ("All buffers were controlled to 150 mM ionic strength"); the standard NMR buffer is 20 mM Tris, 135 mM KCl, 15 mM NaCl, pH 7.3; bound to specific FGF4 dsDNA (13-mer containing the TTGT motif)
His67 = His67 (UniProt position 67, ENPKMHNSEIS); experiment: NMR; conditions: 293 K per the general NMR methods, not restated for the pH titration, 150 mM ionic strength, not given for the titration ("All buffers were controlled to 150 mM ionic strength"), the standard NMR buffer is 20 mM Tris, 135 mM KCl, 15 mM NaCl, pH 7.3

Sequence of Transcription factor SOX-2, extended DNA-binding (HMG) domain, Sox2 31-127 (Homo sapiens) (chain, as listed by the source): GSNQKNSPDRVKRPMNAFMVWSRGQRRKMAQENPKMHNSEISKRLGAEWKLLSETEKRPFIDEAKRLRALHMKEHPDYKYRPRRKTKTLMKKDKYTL

In the case of “Transcription factor SOX-2, extended DNA-binding (HMG) domain, Sox2 31-127 (Homo sapiens)”, the pKa (His101) is reported as 4.1, the pKa (His67; bound to specific FGF4 dsDNA (13-mer containing the TTGT motif)) is reported as 6.25 and the pKa (His67; free Sox2 31-127, folded) is reported as 5.76.
